Data as given in patent US20100150906A1 (AC IMMUNE S A, published 2010).
Blank lines part the entries; values can stand above or below the binder they belong to. No end group written: not given here.

Key:
amyloid beta 1-42 fibers [1] = target: T1, amyloid beta 1-42 fibers (UniProt P05067 672-713); experiment: ELISA on coated amyloid (55 µg/ml); mC2 at 0.078 ug/ml
T1 construct: domain: amyloid beta 1-42; Many copies per fiber; also called Aβ1-42 fibers; fibrillar Aβ1-42
Procedure: (§1) In order to evaluate the specificity of mC2 to different stages of polymerized amyloid protein, monomeric, polymeric soluble and fibrillic amyloid, an ELISA coated with these different stages of polymeric beta-amyloid was performed (FIG. 9). Monomers were prepared according to a modified method published by (Klein, 2002), soluble polymeric amyloid beta according to (Barghorn et al., 2005), whereas fibers were performed by incubation of amyloid (Bachem, Switzerland) with a final concentration of 1 μg/μl in Tris/HCl pH 7.4 at 37° C. for 5 days followed by a centrifugation step (10,000 rpm for 5 minutes). Then amyloid polymers were coated on an ELISA plates with a final concentration of 55 μg/ml and binding affinity ELISA by using an anti-mouse IgG monoclonal antibody (Jackson) labelled with alkaline phosphate was performed.

[2] = target: T2, soluble polymeric amyloid beta (oligomers) (UniProt P05067 672-713); experiment: as above
T2 construct: domain: amyloid beta 1-42; also called amyloid oligomers; Abeta oligomer
Procedure: as §1

[3] = target: T3, amyloid beta 1-42 monomers (UniProt P05067 672-713); experiment: as above
T3 construct: domain: amyloid beta 1-42; also called Aβ1-42 monomers; amyloid monomers
Procedure: as §1

amyloid beta 1-42 fibers [4] = target: T1, amyloid beta 1-42 fibers; experiment: ELISA on coated amyloid (55 µg/ml); mC2 at 0.312 ug/ml
Procedure: as §1

[5] = target: T4, biotinylated complete Aβ1-42 peptide (Bachem) (UniProt P05067 672-713, biotinylated (position not given)); experiment: SPR (Biacore X), biotinylated monomeric Aβ1-42 on SA chip, average of experiments
T4 construct: domain: amyloid beta 1-42; also called Amyloid beta 1-42; whole Aβ1-42 protein
Procedure: The interactions between AC immune's lead antibody mACI-01-Ab7 C2 (mC2) with amyloid peptide Aβ₁₋₄₂ was studies using surface plasmon resonance. The binding of the mouse antibody mACI-01-Ab7 C2 to either monomers or fibers of Aβ₁₋₄₂ were determined.
All SPR experiments were carried out on a Biacore X instrument (Biacore AB). Reagents for immobilization (EDC, NHS and ethanolamine), sensor chips CM5 and SA as well as running and sample buffer HBS-EP were purchased from Biacore AB. Sodium acetate (10 mM, pH 5.0) was used as coupling buffer to increase coupling yield. Fibrillar Aβ₁₋₄₂ (BAchem) was prepared by adding PBS buffer to Aβ₁₋₄₂ to a final concentration of 3 mg/ml and leaving the vials at 37° C. for 7 days. Fibrillar Aβ₁₋₄₂ was coupled to a CM5 sensor chip containing a surface-bound carboxymethyl dextran matrix. Biotinylated monomeric Aβ₁₋₄₂ (Bachem) was coupled to a Sensor chip SA consisting of carboxymethyl dextran matrix with covalently attached Streptavidin. Typically four or five concentrations of mAb were assayed by serial dilutions using running buffer. Injections were performed starting from the lowest concentration and were passed over both fc 1 and 2 at a flow rate of 30 μL'min for 3 min. Flow cell 2 was underivatised and responses were subtracted from fc 1 to correct for instrument noise and bulk refractive changes. After injection was finished, the surfaces were washed immediately with running buffer for 5 min. To remove remaining bound antibody from the Aβ₁₋₄₂ fibrils, surface regeneration was performed by injecting pulses of 10 mM NaOH. Kinetic analysis was performed using algorithms for numerical integration and global analysis using BIAevaluation 3.0. The curves obtained for injections of analyte at different concentrations were overlaid and the baselines adjusted to zero. For curve fitting, all data were fit simultaneously to a 1:1 homogeneous complex.

amyloid beta 1-42 fibers [6] = target: T1, amyloid beta 1-42 fibers; experiment: ELISA on coated amyloid (55 µg/ml); mC2 at 0.156 ug/ml
Procedure: as §1

[7] = target: T2, soluble polymeric amyloid beta …; experiment: as above
Procedure: as §1

[8] = target: T3, amyloid beta 1-42 monomers; experiment: as above
Procedure: as §1

[9] = target: T5, peptide A20 of the second library (aa 12-20, F20 to alanine) (also: biotinylated, position not given here); experiment: ELISA, biotinylated alanine-substituted peptides on streptavidin plate, O.D. 405 nm [middle chart, Figure 2]
T5 peptide: VHHQKLVFA
From the text: (§2) One library comprised a total of 33 biotinylated peptides covering the complete amino acid (aa) sequence of Aβ1-42 (produced by Mimotopes and purchased from ANAWA Trading SA), the second library contains biotinylated peptides using peptide 12 (aa12-20 of Aβ) from the first peptide library and substituting each aa in the sequence by an alanine (see table 8 below), and the third library contains biotinylated peptides 13, 14, or 15 (aa 13-21, 14-22 or 15-23 of Aβ) and substituting in each case the last amino acids to an alanine or to a glycine for aa 21 which is already an alanine (see table 9 below). A biotinylated complete Aβ1-42 peptide was used as positive control (Bachem). Epitope mapping was done according to the manufacturer's (Mimotopes) instructions. Briefly, Streptavidin coated plates (NUNC) were blocked with 0.1% BSA in PBS overnight at 4° C. After washing with PBS-0.05% Tween 20, plates were coated for 1 hour at RT with the different peptides from the library, diluted in 0.1% BSA, 0.1% Sodium Azide in PBS to a final concentration of 10 μM. […] Plates were washed again and incubated with alkaline phosphatase conjugated goat anti human IgG for 1 h at RT.

[10] = target: peptide A16 of the second library (aa 12-20, K16 to alanine) (biotinylated (position not given)); experiment: as above
From the text: as §2

[11] = target: peptide A19 of the second library (aa 12-20, F19 to alanine) (biotinylated (position not given)); experiment: as above
From the text: as §2

[12] = target: T6, peptide A17 of the second library (aa 12-20, L17 to alanine) (also: biotinylated, position not given here); experiment: as above
T6 peptide: VHHQKAVFF
From the text: as §2

T1 sequence (P05067 672-713 limits assumed): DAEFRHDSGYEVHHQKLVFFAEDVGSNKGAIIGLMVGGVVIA
T4 sequence (P05067 672-713 limits assumed): as above
T2 sequence (P05067 672-713 limits assumed): as above
T3 sequence (P05067 672-713 limits assumed): as above

O.D (amyloid beta 1-42 fibers [1]): 0.499 O.D
O.D [2]: 0.652 O.D
O.D [3]: 0.333 O.D
O.D (amyloid beta 1-42 fibers [4]): 0.989 O.D
Kd [5]: 250 nM
koff [5]: 0.004 s⁻¹
kon [5]: 16000 M⁻¹ s⁻¹
O.D (amyloid beta 1-42 fibers [6]): 0.631 O.D
O.D [7]: 1.04 O.D
O.D [8]: 0.397 O.D
B1: mouse monoclonal antibody ACI-01-Ab7C2 (antibody, V domains shown)
VH: EVQLVESGGGLVQPGGSLKLSCAASGFTFSSYGMSWVRQTPDKRLELVASINSNGGSTYYPDSVKGRFTISRDNAKNTLYLQMSSLKSEDTAMYYCASGDYWGQGSTLTVSS
VL: DVVMTQTPLSLPVSLGDQASISCRSSQSLVYSNGDTYLHWYLQKPGQSPKLLIYKVSNRFSGVPDRFSGSGSGTDFTLKISRVEAEDLGVYFCSQSTHVPWTFGGGTKLEIK
notes: also called mC2; mACI-01-Ab7 C2

B2: humanized anti-human amyloid beta monoclonal antibody hC2 (antibody, human IgG4 S228P, kappa, V domains shown)
VH: EVQLVESGGGLVQPGGSLRLSCAASGFTFSSYGMSWVRQAPGKGLELVASINSNGGSTYYPDSVKGRFTISRDNAKNSLYLQMNSLRAEDTAVYYCASGDYWGQGTTVTVSS
VL: DIVMTQSPLSLPVTPGEPASISCRSSQSLVYSNGDTYLHWYLQKPGQSPQLLIYKVSNRFSGVPDRFSGSGSGTDFTLKISRVEAEDVGVYYCSQSTHVPWTFGQGTKVEIKR
notes: also called humanized antibody C2; humanized C2
binding result [9]: no binding (tested: 200 ng/ml (single concentration))
binding result [10]: no binding (tested: 200 ng/ml (single concentration))
binding result [11]: no binding (tested: 200 ng/ml (single concentration))
binding result [12]: no binding (tested: 200 ng/ml (single concentration))
